Assay results: article PMC6508567

Columns and labels:
[1] = target: β-amylase WT (barley (Hordeum vulgare) cv. Harrington) (UniProt P16098)
[2] = target: β-amylase WT (barley (Hordeum vulgare) cv. Harrington) (UniProt P16098); remark: listed apart in the source
[3] = target: β-amylase WT (barley (Hordeum vulgare) cv. Harrington) (UniProt P16098); remark: listed apart in the source
[4] = target: β-amylase WT (barley (Hordeum vulgare) cv. Harrington) (UniProt P16098); assay: SPR; β-amylase immobilised by amine coupling on a CM5 chip, serpin Z4 injected at 0.6, 0.5, 0.4, 0.3 and 0.2 μM; PBS; Biacore T200
[5] = target: β-amylase WT (barley (Hordeum vulgare) cv. Harrington) (UniProt P16098); assay: MST; β-amylase labelled with an NHS-ester fluorescent dye (70 nM), unlabelled serpin Z4 from 40 μM to 1 nM; PBS with 0.1% Tween-20; Monolith NT.115; three replicates combined
[6] = target: chymotrypsin

EC50 of serpin Z4 for the enhancement of β-amylase activity, Betamyl-3 method [1] [nM]	EC50 of serpin Z4 for the enhancement of β-amylase activity, DNSA method [1] [nM]	Vmax of β-amylase with serpin Z4 at a 1:5 molar ratio (Lineweaver-Burk), with or without DTT [2] [fold]	β-amylase activity (DNSA) over 37-62°C with serpin Z4 at 1:5; at 50°C against β-amylase alone at optimal temperatures [3] [%]	Kd [4] [nM]	Kd [5] [nM]	inhibition factor X inh from the residual peptidase activity of chymotrypsin on casein, serpin:protease 2:1 [6]	Binder
180	300	2	60	142	200	–	serpin Z4 (natural protein) MATTLATDVRLSIAHQTRFALRLRSAISSNPERAAGNVAFSPLSLHVALSLITAGAAATRDQLVAILGDGGAGDAKELNALAEQVVQFVLANESSTGGPRIAFANGIFVDASLSLKPSFEELAVCQYKAKTQSVDFQHKTLEAVGQVNSWVEQVTTGLIKQILPPGSVDNTTKLILGNALYFKGAWDQKFDESNTKCDSFHLLDGSSIQTQFMSSTKKQYISSSDNLKVLKLPYAKGHDKRQFSMYILLPGAQDGLWSLAKRLSTEPEFIENHIPKQTVEVGRFQLPKFKISYQFEASSLLRALGLQLPFSEEADLSEMVDSSQGLEISHVFHKSFVEVNEEGTEAGAATVAMGVAMSMPLKVDLVDFVANHPFLFLIREDIAGVVVFVGHVTNPLISA
–	–	–	–	–	–	0.88	serpin BsZx (natural protein) MATTDIRLSIAHQTRFAVRLASAISSPSHAKGSSGNAAFSPLSLHVALSLVAAGAAATRDQLAATLGAAEKGDAEGLHALAEQVVQVVLADASGAGGPRSFANVFVDSSLKLKPSFKDLVVGKYKGETQSVDFQTKAPEVAGQVNSWVEKITTGLIKEILPAGSVDSTTRLVLGNALYFKGSWTEKFDASKTKDEKFHLLDGSSVQTPFMSSTKKQYISSYDSLKVLKLPYQQGGDKRQFSMYILLPEAQDGLWNLANKLSTEPEFMEKHMPMQKVPVGQFKLPKFKISFGFEASDMLKGLGLQLPFSSEADLSEMVDSPAARSLYVSSVFHKSFVEVNEEGTEAAARTARVVTLRSLPVEPVKVDFVADHPFLFLIREDLTGVVLFVGHVFNPLVSA
